15 molecules from patent publication US20240116985A1 (published 2024) can be followed below.

Starred links: 1 amine or outer side, 2 acyl side, 3 side chain; linkers in the order of their positions; H or OH if unused. Positions of bridges follow the written chain, without caps; N, C: chain ends. Non-standard residues stand in square brackets, D forms with d. Primed or numbered codes have the meaning given here. PyrS2″ = (S)-3-amino-1-((pent-4-en-1-yloxy)carbonyl)pyrrolidine-3-carboxylic acid (stapling residue), C=CCCCOC(=O)N1CC[C@@](N[*:1])(C(=O)[*:2])C1; B5(18) = 2,2-bis(4-pentenyl)glycine (2-amino-2-(pent-4-en-1-yl)hept-6-enoic acid), stitching residue, C=CCCCC(CCCC=C)(N[*:1])C(=O)[*:2]; B5(24) = 2-amino-2-(pent-4-en-1-yl)hept-6-enoic acid, 2,2-bis(4-pentenyl)glycine (stitching residue), C=CCCCC(CCCC=C)(N[*:1])C(=O)[*:2]; B5(3) = 2,2-bis(4-pentenyl)glycine (stitching residue), C=CCCCC(CCCC=C)(N[*:1])C(=O)[*:2]; Phe(3-CF3) = N[C@@H](Cc1cccc(C(F)(F)F)c1)C(=O)O; Phe(3-OMe) = COc1cccc(C[C@H](N)C(=O)O)c1; Phe(2-Cl) = N[C@@H](Cc1ccccc1Cl)C(=O)O; 2Nal = N[C@@H](Cc1ccc2ccccc2c1)C(=O)O; Bta = N[C@@H](Cc1csc2ccccc12)C(=O)O; Lys(iPr) = CC(C)NCCCC[C@H](N)C(=O)O; αAllylPro = C=CC[C@@]1(C(=O)O)CCCN1; tBuAla = CC(C)(C)C[C@H](N)C(=O)O; Cha = N[C@@H](CC1CCCCC1)C(=O)O Bounds are passed on as bounds.

To fix the notation:
B1: I-1123 (peptide)
peptide: Ac-[αAllylPro]D[tBuAla][B5(3)]DDAAFL[PyrS2″][Phe(2-Cl)][Bta]Q-NH2
modifications: staple 1-4, 4-11 (inferred); not fully specified (residue 9); printed as Ac-PL3-Asp-Npg-B5-Asp-Asp-Ala-Ala-4F3MeF-Leu-PyrS2-2C1F-BztA-Gln-NH2
B2: I-1120 (peptide)
peptide: Ac-[αAllylPro]D[Cha][B5(3)]DDAAFS[PyrS2″][Phe(2-Cl)][Bta]Q-NH2
modifications: staple 1-4, 4-11 (inferred); not fully specified (residue 9); printed as Ac-PL3-Asp-Cha-B5-Asp-Asp-Ala-Ala-4F3MeF-Ser-PyrS2-2C1F-BztA-Gln-NH2
B3: I-1126 (peptide)
peptide: Ac-[αAllylPro]D[Cha][B5(3)]DDAAFS[PyrS2″]F[Bta]Q-NH2
modifications: staple 1-4, 4-11 (inferred); not fully specified (residue 9); printed as Ac-PL3-Asp-Cha-B5-Asp-Asp-Ala-Ala-4F3MeF-Ser-PyrS2-Phe-BztA-Gln-NH2

The target of the first assay is T1, B-cat-Halo (UniProt P35222 1-781).
T1 sequence (looked up): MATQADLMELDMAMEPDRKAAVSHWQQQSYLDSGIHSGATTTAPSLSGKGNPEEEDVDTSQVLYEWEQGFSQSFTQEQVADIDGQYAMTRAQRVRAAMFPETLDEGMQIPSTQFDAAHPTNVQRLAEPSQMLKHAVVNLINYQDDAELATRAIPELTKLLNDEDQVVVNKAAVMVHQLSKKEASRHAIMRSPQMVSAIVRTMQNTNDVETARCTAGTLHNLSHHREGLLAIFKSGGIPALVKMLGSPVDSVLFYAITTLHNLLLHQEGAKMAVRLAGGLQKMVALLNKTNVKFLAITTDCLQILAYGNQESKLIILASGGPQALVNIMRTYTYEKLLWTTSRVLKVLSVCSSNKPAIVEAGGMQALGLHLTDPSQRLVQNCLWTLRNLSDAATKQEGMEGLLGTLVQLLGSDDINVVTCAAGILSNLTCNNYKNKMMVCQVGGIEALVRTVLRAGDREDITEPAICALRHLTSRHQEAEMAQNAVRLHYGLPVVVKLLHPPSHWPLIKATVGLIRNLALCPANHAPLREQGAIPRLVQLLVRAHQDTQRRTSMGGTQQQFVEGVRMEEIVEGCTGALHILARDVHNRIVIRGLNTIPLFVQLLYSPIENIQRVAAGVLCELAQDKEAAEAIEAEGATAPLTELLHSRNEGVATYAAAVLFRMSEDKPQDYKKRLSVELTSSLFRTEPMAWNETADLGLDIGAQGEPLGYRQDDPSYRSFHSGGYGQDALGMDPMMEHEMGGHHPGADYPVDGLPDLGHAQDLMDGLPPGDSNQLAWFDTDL
As to the kind of experiment: cell-based or functional assay.
In the case of Ac-[αAllylPro]D[tBuAla][B5(18)]DNAAFS[PyrS2″][Phe(2-Cl)][Bta]Q-NH2 (staple 1-4, 4-11) [I-1018], the “NanoBRET Abs IC50” value was determined as 25.8 µM.
Still for that read-out and setting: the figure for Ac-[αAllylPro]D[tBuAla][B5(18)]DNAAFT[PyrS2″][Phe(2-Cl)][Bta]S-NH2 (staple 1-4, 4-11) [I-1016] is 21.4 µM; for Ac-[αAllylPro]D[tBuAla][B5(18)]DDAAFS[PyrS2″][Phe(2-Cl)][Bta]Q-NH2 (staple 1-4, 4-11) [I-1017] it is 8.9 µM.
On the same count and under the same terms, the figure for Ac-[αAllylPro]D[tBuAla][B5(18)]DNAAFT[PyrS2″][Phe(2-Cl)][Bta]Q-NH2 (staple 1-4, 4-11) [I-1014] is 14.3 µM.
Turning to Ac-[αAllylPro]D[tBuAla][B5(18)]DDAAFT[PyrS2″][Phe(2-Cl)][Bta]Q-NH2 (staple 1-4, 4-11) [I-1013], the “NanoBRET Abs IC50” value was 12.4 µM.

The target of another assay is T2, B-cat-Halo (UniProt P35222 1-781).
T2 sequence (looked up): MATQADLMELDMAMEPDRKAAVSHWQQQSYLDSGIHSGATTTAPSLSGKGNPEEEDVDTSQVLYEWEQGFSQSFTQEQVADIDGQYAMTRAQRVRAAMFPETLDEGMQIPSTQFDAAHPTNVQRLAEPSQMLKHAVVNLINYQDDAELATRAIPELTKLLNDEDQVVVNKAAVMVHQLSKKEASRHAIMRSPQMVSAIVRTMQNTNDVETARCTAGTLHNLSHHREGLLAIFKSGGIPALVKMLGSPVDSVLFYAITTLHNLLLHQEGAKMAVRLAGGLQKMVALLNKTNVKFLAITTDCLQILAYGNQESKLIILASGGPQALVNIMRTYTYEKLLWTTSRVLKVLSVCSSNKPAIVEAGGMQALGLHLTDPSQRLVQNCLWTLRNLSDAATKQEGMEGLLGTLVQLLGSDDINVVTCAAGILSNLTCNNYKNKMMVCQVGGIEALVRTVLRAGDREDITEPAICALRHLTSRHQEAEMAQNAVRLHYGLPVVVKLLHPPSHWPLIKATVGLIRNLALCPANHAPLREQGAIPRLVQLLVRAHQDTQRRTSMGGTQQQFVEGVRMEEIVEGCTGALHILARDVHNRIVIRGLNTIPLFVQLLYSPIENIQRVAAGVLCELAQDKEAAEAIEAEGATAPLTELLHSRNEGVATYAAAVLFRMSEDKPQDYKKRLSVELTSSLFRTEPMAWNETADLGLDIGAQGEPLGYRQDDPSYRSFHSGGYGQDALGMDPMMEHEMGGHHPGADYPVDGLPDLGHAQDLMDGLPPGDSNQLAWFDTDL
As to the kind of experiment: cell-based or functional assay.
On to Ac-[αAllylPro]D[2Nal][B5(3)]DDAAFT[PyrS2″][2C1F][Bta]S-NH2 (staple 1-4, 4-11) [I-1115], for which the “NanoBRET Abs IC50” value was determined as 24.3 µM.
Turning to Ac-[αAllylPro]D[Cha][B5(3)]DDAA[Phe(3-CF3)]S[PyrS2″]F[Bta]Q-NH2 (staple 1-4, 4-11 (inferred)) [I-1125], the “NanoBRET Abs IC50” value was more than 20 µM.
For Ac-[αAllylPro]D[Cha][B5(3)]DDAA[Phe(3-CF3)]S[PyrS2″][Phe(2-Cl)][Bta]Q-NH2 (staple 1-4, 4-11 (inferred)) [I-1119], the “NanoBRET Abs IC50” value was 19.4 µM.
Same read-out and setting: next, Ac-[αAllylPro]D[tBuAla][B5(24)]DDA[Lys(iPr)]FN[PyrS2″][Phe(2-Cl)][Bta]Q-NH2 (staple 1-4, 4-11) [I-1132]: more than 20 µM; Ac-[αAllylPro]D[Cha][B5(24)]DDAAFS[PyrS2″][Phe(2-Cl)][Bta][dT]-NH2 (staple 1-4, 4-11) [I-1136]: 14.9 µM.
Consider B1, for which the “NanoBRET Abs IC50” value is 28.5 µM.
As for B2, the “NanoBRET Abs IC50” value was more than 20 µM.
Ac-[αAllylPro]D[Cha][B5(3)]DDAA[Phe(3-OMe)]S[PyrS2″][Phe(2-Cl)][Bta]Q-NH2 (staple 1-4, 4-11 (inferred)) [I-1118]: the “NanoBRET Abs IC50” value was found to be 29.5 µM.
On to Ac-[αAllylPro]D[tBuAla][B5(24)]DDAAFN[PyrS2″][Phe(2-Cl)][Bta][Lys(iPr)]-NH2 (staple 1-4, 4-11) [I-1130], for which the “NanoBRET Abs IC50” value came to 7.6 µM.
The same measure, in the same setting: the figure for B3 is 26.8 µM.
